# Reference: the supplement of paper PMC10065799, “High-throughput profiling of sequence recognition by tyrosine kinases and SH2 domains using bacterial peptide display” (eLife, 2023)
# Molecular target: FGFR3 (UniProt P22607)
# Assay: phosphorylation enrichment, bacterial display (enrichment ratio); higher = better substrate or ligand; peptides without Tyr show the background
# 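Further: 11-residue human phosphosite peptides and single-mutation variants displayed on the E. coli surface, counted by deep sequencing, each peptide's frequency after selection divided by its frequency in the unselected input library; frequency after pTyr selection over input frequency; kinase dosed for 20-30% of maximal phosphorylation in three min.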
# Sequence of FGFR3 (P22607 whole entry, looked up): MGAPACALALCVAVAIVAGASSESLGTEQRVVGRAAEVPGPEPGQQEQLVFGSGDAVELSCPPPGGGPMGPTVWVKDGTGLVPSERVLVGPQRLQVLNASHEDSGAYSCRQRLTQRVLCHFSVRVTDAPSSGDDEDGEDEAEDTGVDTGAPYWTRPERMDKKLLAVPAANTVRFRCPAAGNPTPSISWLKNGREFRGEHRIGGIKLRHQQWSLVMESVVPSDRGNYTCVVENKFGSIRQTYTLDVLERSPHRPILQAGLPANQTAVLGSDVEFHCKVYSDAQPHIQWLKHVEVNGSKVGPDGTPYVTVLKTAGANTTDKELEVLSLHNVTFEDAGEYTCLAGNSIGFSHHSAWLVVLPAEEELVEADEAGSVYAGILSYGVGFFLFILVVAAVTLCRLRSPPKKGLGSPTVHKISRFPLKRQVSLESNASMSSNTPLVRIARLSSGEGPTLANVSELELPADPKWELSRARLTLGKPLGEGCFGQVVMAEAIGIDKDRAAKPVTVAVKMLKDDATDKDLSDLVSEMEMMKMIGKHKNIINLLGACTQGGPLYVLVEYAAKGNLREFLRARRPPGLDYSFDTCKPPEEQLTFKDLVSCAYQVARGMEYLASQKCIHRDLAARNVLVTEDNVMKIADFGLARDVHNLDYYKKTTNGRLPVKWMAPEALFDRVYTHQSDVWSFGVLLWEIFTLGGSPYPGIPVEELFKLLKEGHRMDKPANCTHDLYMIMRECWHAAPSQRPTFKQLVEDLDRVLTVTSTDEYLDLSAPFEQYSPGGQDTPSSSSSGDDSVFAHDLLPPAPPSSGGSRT
row,Sequence,phosphorylation enrichment
1,QMVGMYASSSM [AVPR2_Y124_Y128S],0.435
2,EFAAGYNVKFD [GPX4_Y123],0.544
3,HHTDECEYDEL [TGM1_Y134_Y134C],1.03
4,TNITEYCRDLI [RECQL_Y492_K487T],0.743
5,EQDRAYLEGTC [HLA-C_Y183_L180D],0.663
6,LSEEKYELKEG [TREM1_Y29_T25S],0.835
7,VHSGTYQVTVC [MYBPC3_Y1043_R1048C],0.93
8,TIEDSYRKQVV [KRAS_Y40],0.561
9,RICRRYCQVLN [IQCF1_Y144_R141C],0.66
10,VLICAYLLHRG [PTEN_Y138_M134L],0.809
11,TLEKFYFAFPG [SLC1A1_Y51],6.62
12,HFPFQCHRQLY [F12_Y53_Y53C],0.564
13,AHAGGYGAEAL [HBA1_Y25_E24G],0.489
14,YKEQGYHRLPP [RIN1_Y681],0.544
15,RAHARYCADAR [ACOT4_Y52],0.633
16,CPPKVYELMIA [ABL2_Y515_R519I],0.959
17,FTFTSYFMHWV [IGHV1-46_Y51_YF],0.765

row,Sequence,phosphorylation enrichment
1,IRTGIYHGGEP [PIK3CA_Y361_V356I],0.447
2,CENNRYGMGAS [PDHA1_Y227_T231A],0.476
3,LDLSYYPTSSS [EMD_Y182],3.28
4,EQKKYYNAMKK [SCN5A_Y1495],0.4
5,MSSLYYANALF [HOXB7_Y6_T9A],4.83
6,QAQMDYRRLQP [MPL_Y591],0.788
7,DAKTIYDFTDT [PDK1_Y136_A134T],0.729
8,IHTEFYDGLFP [BCR_Y561_K558T],0.813
9,PLKFLYPNIDK [STAT1_Y668_YF],0.822
10,QTPVLYAMLFH [MPZ_Y220_D224Y_YF],2.13
11,DPLASYLDKVR [KRT10_Y160_R156P],0.534
12,TVEDHDFEGGI [TKT_Y563_Y563D_YF],0.873
13,NRNVRYLTLDI [AKR1C2_Y305],0.499
14,NKHTTYTMEHI [ACTN1_Y708_N707T],0.445
15,AMCVCYDGVEV [ADAMTSL2_Y594_R593C],0.882
16,RQNQEYEILMD [KRT39_Y379_L383M],0.847

# Molecular target: Jak2 (UniProt O60674)
# Assay: as above
# Sequence of Jak2 (O60674 whole entry, looked up): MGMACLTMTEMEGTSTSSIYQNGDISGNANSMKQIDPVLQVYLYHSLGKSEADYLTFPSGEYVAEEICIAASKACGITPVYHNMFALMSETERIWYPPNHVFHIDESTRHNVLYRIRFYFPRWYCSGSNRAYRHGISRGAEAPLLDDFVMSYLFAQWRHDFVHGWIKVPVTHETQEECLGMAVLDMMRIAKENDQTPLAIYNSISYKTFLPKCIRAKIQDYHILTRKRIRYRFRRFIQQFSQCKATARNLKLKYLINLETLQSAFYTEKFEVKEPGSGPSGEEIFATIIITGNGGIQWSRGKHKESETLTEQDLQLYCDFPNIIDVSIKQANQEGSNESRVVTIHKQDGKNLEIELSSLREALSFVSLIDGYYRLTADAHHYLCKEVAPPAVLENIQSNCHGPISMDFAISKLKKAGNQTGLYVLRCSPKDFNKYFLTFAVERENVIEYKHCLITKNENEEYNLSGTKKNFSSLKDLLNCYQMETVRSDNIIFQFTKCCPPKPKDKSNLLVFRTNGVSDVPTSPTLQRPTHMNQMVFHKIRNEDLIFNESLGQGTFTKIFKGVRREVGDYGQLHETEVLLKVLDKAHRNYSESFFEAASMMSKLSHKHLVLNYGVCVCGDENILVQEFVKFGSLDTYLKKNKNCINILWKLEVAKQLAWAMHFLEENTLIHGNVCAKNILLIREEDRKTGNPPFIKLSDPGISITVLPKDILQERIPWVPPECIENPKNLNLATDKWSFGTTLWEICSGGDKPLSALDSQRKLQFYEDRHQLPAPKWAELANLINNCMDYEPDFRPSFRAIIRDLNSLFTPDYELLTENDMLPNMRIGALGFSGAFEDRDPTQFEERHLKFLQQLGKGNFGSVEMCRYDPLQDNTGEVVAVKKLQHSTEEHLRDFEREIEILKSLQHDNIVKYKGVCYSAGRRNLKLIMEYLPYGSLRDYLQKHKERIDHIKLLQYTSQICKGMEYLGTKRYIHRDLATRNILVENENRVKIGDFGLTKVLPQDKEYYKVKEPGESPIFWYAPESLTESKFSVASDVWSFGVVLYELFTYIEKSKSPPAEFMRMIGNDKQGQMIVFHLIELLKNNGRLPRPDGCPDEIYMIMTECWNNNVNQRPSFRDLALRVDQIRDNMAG
row,Sequence,phosphorylation enrichment
1,QMVGMYASSSM [AVPR2_Y124_Y128S],0.635
2,EFAAGYNVKFD [GPX4_Y123],0.502
3,HHTDECEYDEL [TGM1_Y134_Y134C],1.33
4,TNITEYCRDLI [RECQL_Y492_K487T],1.25
5,EQDRAYLEGTC [HLA-C_Y183_L180D],0.978
6,LSEEKYELKEG [TREM1_Y29_T25S],1.18
7,VHSGTYQVTVC [MYBPC3_Y1043_R1048C],1.01
8,TIEDSYRKQVV [KRAS_Y40],0.703
9,RICRRYCQVLN [IQCF1_Y144_R141C],0.817
10,VLICAYLLHRG [PTEN_Y138_M134L],0.929
11,TLEKFYFAFPG [SLC1A1_Y51],3.54
12,HFPFQCHRQLY [F12_Y53_Y53C],0.861
13,AHAGGYGAEAL [HBA1_Y25_E24G],0.559
14,YKEQGYHRLPP [RIN1_Y681],0.977
15,RAHARYCADAR [ACOT4_Y52],0.533
16,CPPKVYELMIA [ABL2_Y515_R519I],1.2
17,FTFTSYFMHWV [IGHV1-46_Y51_YF],2.37

row,Sequence,phosphorylation enrichment
1,IRTGIYHGGEP [PIK3CA_Y361_V356I],0.653
2,CENNRYGMGAS [PDHA1_Y227_T231A],0.629
3,LDLSYYPTSSS [EMD_Y182],5.02
4,EQKKYYNAMKK [SCN5A_Y1495],0.613
5,MSSLYYANALF [HOXB7_Y6_T9A],2.94
6,QAQMDYRRLQP [MPL_Y591],0.795
7,DAKTIYDFTDT [PDK1_Y136_A134T],0.876
8,IHTEFYDGLFP [BCR_Y561_K558T],0.993
9,PLKFLYPNIDK [STAT1_Y668_YF],1.65
10,QTPVLYAMLFH [MPZ_Y220_D224Y_YF],1.39
11,DPLASYLDKVR [KRT10_Y160_R156P],0.521
12,TVEDHDFEGGI [TKT_Y563_Y563D_YF],1.05
13,NRNVRYLTLDI [AKR1C2_Y305],0.835
14,NKHTTYTMEHI [ACTN1_Y708_N707T],0.447
15,AMCVCYDGVEV [ADAMTSL2_Y594_R593C],1.03
16,RQNQEYEILMD [KRT39_Y379_L383M],1.66

# Molecular target: EPHB1 (UniProt P54762)
# Assay: as above
# Sequence of EPHB1 (P54762 whole entry, looked up): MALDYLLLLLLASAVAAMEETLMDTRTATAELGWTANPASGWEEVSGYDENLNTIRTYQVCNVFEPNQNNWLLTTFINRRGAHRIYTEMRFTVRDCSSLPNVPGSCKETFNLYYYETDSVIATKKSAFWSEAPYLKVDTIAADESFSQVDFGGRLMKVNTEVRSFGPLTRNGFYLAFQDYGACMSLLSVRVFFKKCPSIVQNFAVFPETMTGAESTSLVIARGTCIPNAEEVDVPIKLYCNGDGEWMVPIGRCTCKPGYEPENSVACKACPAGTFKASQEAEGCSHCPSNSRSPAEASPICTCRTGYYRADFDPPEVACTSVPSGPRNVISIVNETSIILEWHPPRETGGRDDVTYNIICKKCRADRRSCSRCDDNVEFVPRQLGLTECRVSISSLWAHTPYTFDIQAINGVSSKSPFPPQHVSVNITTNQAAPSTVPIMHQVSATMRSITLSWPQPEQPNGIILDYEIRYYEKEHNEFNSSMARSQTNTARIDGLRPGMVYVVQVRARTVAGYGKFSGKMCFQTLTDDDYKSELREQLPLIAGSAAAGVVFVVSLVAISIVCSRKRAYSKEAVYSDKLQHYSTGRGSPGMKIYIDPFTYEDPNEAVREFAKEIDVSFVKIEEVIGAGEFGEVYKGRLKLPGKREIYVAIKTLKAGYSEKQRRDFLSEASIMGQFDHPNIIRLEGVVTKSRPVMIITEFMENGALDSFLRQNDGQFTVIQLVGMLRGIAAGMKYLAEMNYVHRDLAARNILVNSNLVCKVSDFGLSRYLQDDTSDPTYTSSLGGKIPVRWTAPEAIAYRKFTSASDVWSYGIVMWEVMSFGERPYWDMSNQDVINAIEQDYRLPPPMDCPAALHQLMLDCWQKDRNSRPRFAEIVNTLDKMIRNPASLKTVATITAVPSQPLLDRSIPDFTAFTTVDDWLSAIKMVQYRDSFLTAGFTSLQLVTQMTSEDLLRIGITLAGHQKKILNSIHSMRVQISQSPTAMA
row,Sequence,phosphorylation enrichment
1,QMVGMYASSSM [AVPR2_Y124_Y128S],0.73
2,EFAAGYNVKFD [GPX4_Y123],0.425
3,HHTDECEYDEL [TGM1_Y134_Y134C],0.835
4,TNITEYCRDLI [RECQL_Y492_K487T],0.614
5,EQDRAYLEGTC [HLA-C_Y183_L180D],0.549
6,LSEEKYELKEG [TREM1_Y29_T25S],0.712
7,VHSGTYQVTVC [MYBPC3_Y1043_R1048C],0.749
8,TIEDSYRKQVV [KRAS_Y40],0.383
9,RICRRYCQVLN [IQCF1_Y144_R141C],0.676
10,VLICAYLLHRG [PTEN_Y138_M134L],0.62
11,TLEKFYFAFPG [SLC1A1_Y51],1.98
12,HFPFQCHRQLY [F12_Y53_Y53C],0.559
13,AHAGGYGAEAL [HBA1_Y25_E24G],0.436
14,YKEQGYHRLPP [RIN1_Y681],0.363
15,RAHARYCADAR [ACOT4_Y52],0.444
16,CPPKVYELMIA [ABL2_Y515_R519I],7.46
17,FTFTSYFMHWV [IGHV1-46_Y51_YF],0.437

row,Sequence,phosphorylation enrichment
1,IRTGIYHGGEP [PIK3CA_Y361_V356I],0.392
2,CENNRYGMGAS [PDHA1_Y227_T231A],0.403
3,LDLSYYPTSSS [EMD_Y182],1.21
4,EQKKYYNAMKK [SCN5A_Y1495],0.368
5,MSSLYYANALF [HOXB7_Y6_T9A],7.33
6,QAQMDYRRLQP [MPL_Y591],0.373
7,DAKTIYDFTDT [PDK1_Y136_A134T],0.696
8,IHTEFYDGLFP [BCR_Y561_K558T],0.739
9,PLKFLYPNIDK [STAT1_Y668_YF],0.945
10,QTPVLYAMLFH [MPZ_Y220_D224Y_YF],6.9
11,DPLASYLDKVR [KRT10_Y160_R156P],0.413
12,TVEDHDFEGGI [TKT_Y563_Y563D_YF],0.692
13,NRNVRYLTLDI [AKR1C2_Y305],0.392
14,NKHTTYTMEHI [ACTN1_Y708_N707T],0.394
15,AMCVCYDGVEV [ADAMTSL2_Y594_R593C],0.585
16,RQNQEYEILMD [KRT39_Y379_L383M],1.79

# Molecular target: MERTK (UniProt Q12866)
# Assay: as above
# Sequence of MERTK (Q12866 whole entry, looked up): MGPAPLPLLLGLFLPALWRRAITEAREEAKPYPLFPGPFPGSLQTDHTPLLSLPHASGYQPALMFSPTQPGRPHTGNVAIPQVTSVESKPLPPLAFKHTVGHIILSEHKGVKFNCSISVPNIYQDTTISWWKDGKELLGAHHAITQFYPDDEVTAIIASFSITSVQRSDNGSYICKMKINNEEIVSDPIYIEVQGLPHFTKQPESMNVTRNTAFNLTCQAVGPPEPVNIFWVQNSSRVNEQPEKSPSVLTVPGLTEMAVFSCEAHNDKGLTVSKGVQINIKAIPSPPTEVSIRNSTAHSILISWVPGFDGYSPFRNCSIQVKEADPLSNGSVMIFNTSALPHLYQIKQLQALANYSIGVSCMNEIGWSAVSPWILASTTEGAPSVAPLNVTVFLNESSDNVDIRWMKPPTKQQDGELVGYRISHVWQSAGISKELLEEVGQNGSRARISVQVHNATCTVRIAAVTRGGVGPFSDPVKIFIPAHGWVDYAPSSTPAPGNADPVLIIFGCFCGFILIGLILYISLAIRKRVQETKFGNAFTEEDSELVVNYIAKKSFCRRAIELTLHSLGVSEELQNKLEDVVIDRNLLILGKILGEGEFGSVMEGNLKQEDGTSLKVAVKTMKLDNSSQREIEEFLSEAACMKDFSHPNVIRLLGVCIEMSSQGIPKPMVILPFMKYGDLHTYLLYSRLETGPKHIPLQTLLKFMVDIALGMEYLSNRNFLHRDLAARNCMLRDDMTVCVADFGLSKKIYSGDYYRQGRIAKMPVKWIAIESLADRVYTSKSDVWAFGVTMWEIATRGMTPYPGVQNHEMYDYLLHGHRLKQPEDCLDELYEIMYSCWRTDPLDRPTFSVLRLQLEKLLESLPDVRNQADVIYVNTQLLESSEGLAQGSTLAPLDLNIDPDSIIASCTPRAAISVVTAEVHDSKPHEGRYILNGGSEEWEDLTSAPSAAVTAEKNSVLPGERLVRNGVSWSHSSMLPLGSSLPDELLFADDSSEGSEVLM
row,Sequence,phosphorylation enrichment
1,QMVGMYASSSM [AVPR2_Y124_Y128S],0.504
2,EFAAGYNVKFD [GPX4_Y123],0.461
3,HHTDECEYDEL [TGM1_Y134_Y134C],0.641
4,TNITEYCRDLI [RECQL_Y492_K487T],0.415
5,EQDRAYLEGTC [HLA-C_Y183_L180D],0.454
6,LSEEKYELKEG [TREM1_Y29_T25S],0.449
7,VHSGTYQVTVC [MYBPC3_Y1043_R1048C],0.575
8,TIEDSYRKQVV [KRAS_Y40],0.369
9,RICRRYCQVLN [IQCF1_Y144_R141C],0.758
10,VLICAYLLHRG [PTEN_Y138_M134L],0.412
11,TLEKFYFAFPG [SLC1A1_Y51],7.49
12,HFPFQCHRQLY [F12_Y53_Y53C],0.597
13,AHAGGYGAEAL [HBA1_Y25_E24G],0.438
14,YKEQGYHRLPP [RIN1_Y681],0.346
15,RAHARYCADAR [ACOT4_Y52],0.444
16,CPPKVYELMIA [ABL2_Y515_R519I],5.18
17,FTFTSYFMHWV [IGHV1-46_Y51_YF],0.391

row,Sequence,phosphorylation enrichment
1,IRTGIYHGGEP [PIK3CA_Y361_V356I],0.507
2,CENNRYGMGAS [PDHA1_Y227_T231A],0.324
3,LDLSYYPTSSS [EMD_Y182],0.955
4,EQKKYYNAMKK [SCN5A_Y1495],0.305
5,MSSLYYANALF [HOXB7_Y6_T9A],10.7
6,QAQMDYRRLQP [MPL_Y591],0.321
7,DAKTIYDFTDT [PDK1_Y136_A134T],1.48
8,IHTEFYDGLFP [BCR_Y561_K558T],1.02
9,PLKFLYPNIDK [STAT1_Y668_YF],0.846
10,QTPVLYAMLFH [MPZ_Y220_D224Y_YF],7.73
11,DPLASYLDKVR [KRT10_Y160_R156P],0.441
12,TVEDHDFEGGI [TKT_Y563_Y563D_YF],0.452
13,NRNVRYLTLDI [AKR1C2_Y305],0.497
14,NKHTTYTMEHI [ACTN1_Y708_N707T],0.434
15,AMCVCYDGVEV [ADAMTSL2_Y594_R593C],0.41
16,RQNQEYEILMD [KRT39_Y379_L383M],0.503
